Source: publication PMC9871958 (Protein & Cell, 2022)

Key:
SARS-CoV-2 RBD protein [1] = biological target: T1, SARS-CoV-2 RBD protein (SARS-CoV-2, UniProt P0DTC2); experiment: SPR; settings: both partners purified
SARS-CoV-2 RBD protein [2] = biological target: T1, SARS-CoV-2 RBD protein; experiment: cell-based or functional assay

B1: 1F (antibody, V domains shown)
VH: EVQLVESGPGLVKPSETLSLTCTVSGGSISSSSYYWGWIRQPPGKGLEWIGSIYYRGSTYYNPSLKSRVTISVDTSKNQFSLKLSSVTAADTAVYYCARHVRSAYYYGSGSYRDEGNWFDPWGQGTLVTVSS
VL: QSVLTQPPSVSGAPGQRVTISCTGTRSNIGAGHDVHWYQQLPGTAPKLLIYGNNNRPSGVPDRFSGAKSGTSASLAITGLQAEDEADYYCQSYDRTLTSYVFGTGTKVTVL
Kd (SARS-CoV-2 RBD protein [1]): 0.077 nM | IC50 of neutralisation of authentic SARS-CoV-2 virus (1F blocks RBD-ACE2) (SARS-CoV-2 RBD protein [2]): 18 ng/mL
